Data as given in PMC9420396.

T1: DDX21 helicase core WT (human, UniProt Q9NR30 188-563)
T1 sequence: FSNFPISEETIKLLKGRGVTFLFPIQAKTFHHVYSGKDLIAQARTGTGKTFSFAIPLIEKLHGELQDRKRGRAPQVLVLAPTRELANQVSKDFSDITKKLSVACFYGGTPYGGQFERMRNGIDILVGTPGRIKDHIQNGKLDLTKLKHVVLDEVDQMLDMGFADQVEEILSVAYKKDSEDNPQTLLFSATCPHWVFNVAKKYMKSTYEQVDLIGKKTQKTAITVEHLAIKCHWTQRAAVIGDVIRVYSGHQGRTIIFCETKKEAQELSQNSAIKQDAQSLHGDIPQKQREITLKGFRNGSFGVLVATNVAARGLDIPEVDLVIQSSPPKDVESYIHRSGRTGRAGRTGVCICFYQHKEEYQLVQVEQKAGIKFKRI

B1: U15 RNA (SEC) (ssRNA)
RNA: UUUUUUUUUUUUUUU
B2: U15 RNA, 5'-FAM (ssRNA)
RNA: UUUUUUUUUUUUUUU

How the values were obtained:
[1] = biological target: T1, DDX21 helicase core WT; experiment: SEC co-elution
[2] = biological target: T1, DDX21 helicase core WT; experiment: MST

Binder | binding result [1] | binding result [2]
B1 | binds | –
B2 | – | binds
